The values that follow come from the supplement of paper PMC10567573.

± gives the standard deviation.

This data set is described as follows: protein stability index of a GFP-peptide fusion (GPS, HEK-293T) (PSI 1-6); higher = more stable.
The mark [1] stands for this setting: treatment: DMSO, c terminus: a fixed tail appended.
The mark [2] stands for this setting: treatment: MLN4924 1 uM, 8 h, c terminus: a fixed tail appended.
[3] abbreviates: treatment: DMSO, c terminus: native.
Setting [4] is: treatment: MLN4924 1 uM, 8 h, c terminus: native.
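Note: 24-mer peptide tiles fused after GFP, lentivirally expressed, FACS-sorted into six equal bins by GFP/DsRed ratio, decoded by Illumina sequencing, PSI is the read-weighted mean bin number.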

Take QGIYEEYEDIRRENPVGTFHCSMS [PTPN9]: the protein stability index was found to be 3.84 ± 0.28 under setting [1] and 3.98 ± 0.26 under setting [2].

On to QGTARTLSPVLESPRDLQFSEIRE [TNXB], for which the protein stability index by setting is: under setting [1], 4.64 ± 0.16; under setting [2], 4.78 ± 0.18.

QGTELWVAERGTTQGCHPAWEPRS [ZNF8]: the protein stability index came to 3.24 ± 0.16 under setting [1] and 3.1 ± 0.27 under setting [2].

As for QHKCDECGKSFTQSSGLIRHQRIH [ZSCAN9], the protein stability index turned out to be 5.26 ± 0.19 under setting [1] and 5.28 ± 0.12 under setting [2].

In the case of QIEGLNEELAYLKKNHEEEMKEFS [KRT15], the protein stability index was determined as 5.25 ± 0.33 under setting [1] and 5.3 ± 0.19 under setting [2].

With QIKRKARNEGRNRRRQQVLPLKS [CDKL4], the protein stability index came to 2.87 ± 0.24 under setting [3] and 3.44 ± 0.35 under setting [4].

As for QKNFELAFTMAENLANCERLIEVE [SMTNL2], the protein stability index runs as follows: under setting [1], 2.45 ± 0.2; under setting [2], 2.88 ± 0.67.

Consider QLDGLGFLYVTGHIKEILITAGGE [ACSBG2], for which the protein stability index runs as follows: under setting [1], 2.66 ± 0.54; under setting [2], 2.44 ± 0.64.

Sequence QLELRAGAERLDALLADEERCLSC [TRADD] registered a protein stability index under setting [1] of 3.98 ± 0.25 and a protein stability index under setting [2] of 4.24 ± 0.18.

Turning to QLIYNHITTRVNSEQEHFLIVPFG [ADD1], the protein stability index is 2.41 ± 0.27 under setting [1] and 2.26 ± 0.08 under setting [2].

Turning to QLLEQKQAYWAQAEDTAAPAEESK [CBY2], the protein stability index is, setting by setting: under setting [1], 5.01 ± 0.25; under setting [2], 4.96 ± 0.23.

As to QMPTEIEFPESRKPISTKSQFLKH [ZNF649], the protein stability index by setting is: under setting [1], 4.16 ± 0.19; under setting [2], 4.26 ± 0.19.

For QMQDDEQKTRLLEDSVSRLEKEIE [PALM], the protein stability index runs as follows: under setting [1], 5.11 ± 0.15; under setting [2], 4.97 ± 0.1.

Take QNAALRGELSQARGQEPARADQLC [PRPH]: the protein stability index amounted to 5.12 ± 0.23 under setting [1] and 5.02 ± 0.37 under setting [2].

Take QNLLGFTPEELHAILGVQPDTED [ETS2]: the protein stability index runs as follows: under setting [3], 4.78 ± 0.39; under setting [4], 4.85 ± 0.34.

For QPIHLWQFLKELLLKPHSYGRFIR [SPDEF], the protein stability index runs as follows: under setting [1], 2.69 ± 0.13; under setting [2], 2.65 ± 0.19.

Turning to QPNTYADFEFLAFWQTQYNNMNAV [PKD2L1], the protein stability index runs as follows: under setting [1], 2.21 ± 0.4; under setting [2], 2.03 ± 0.24.

As for QPPRFPVPHNGSSEATLPAQMSTL [PDLIM4], the protein stability index reads like this: under setting [1], 4.67 ± 0.19; under setting [2], 4.83 ± 0.089.

Take QPPSCQGEAAGSSLIGHLQTLSPD [DUSP5]: the protein stability index under setting [1] came out at 4.76 ± 0.14 and the protein stability index under setting [2] stood at 4.69 ± 0.13.

As for QPSGMKEGVKRYEQEHAAIQDKLF [CHCHD6], the protein stability index by setting is: under setting [1], 4.55 ± 0.12; under setting [2], 4.14 ± 0.21.

Consider QQGEYSEAIPILRAALKLEPSNKT [FKBP8], for which the protein stability index stood at 4.12 ± 0.19 under setting [1] and 4.14 ± 0.11 under setting [2].

With QQLEEELLRAKIEVEKLKAIRLRH [RAD54B], the protein stability index is, setting by setting: under setting [1], 5.32 ± 0.25; under setting [2], 5.43 ± 0.27.

In turn, QQLHQLPRGRLDLATQSLTVETCR [LRRC45] gave a protein stability index under setting [1] of 4.04 ± 0.23 and a protein stability index under setting [2] of 3.9 ± 0.32.

Consider QQLKEFDGKSLVSVTKEGLELPED [HSP90AB1], for which the protein stability index is, setting by setting: under setting [1], 5.29 ± 0.42; under setting [2], 5.3 ± 0.44.

For the sequence QQPSLNTMIQQQNMQQPMNVMTQS [CLINT1], the protein stability index runs as follows: under setting [1], 4.41 ± 0.21; under setting [2], 4.52 ± 0.087.

In the case of QQYRQDQRDGSKSEDELDQASTPT [CCND2], the protein stability index was 5.45 ± 0.2 under setting [1] and 5.39 ± 0.12 under setting [2].

With QRLEEQERRHREEKERRKKQQWEI [RSPH3], the protein stability index worked out at 4.45 ± 0.28 under setting [1] and 4.54 ± 0.31 under setting [2].

As to QSKTASDKSPSTVRDQGPSIPLTP [FBF1], the protein stability index came to 5.07 ± 0.21 under setting [1] and 5.15 ± 0.099 under setting [2].

Take QTALLESSCENKRADLVFIIDSSR [MATN2]: the protein stability index stood at 3.05 ± 0.24 under setting [1] and 3.24 ± 0.28 under setting [2].
